According to patent US20250051471A1, “Anti-Abcb1 Antibodies” (WILLIAM ROBERT ARATHOON LIVING TRUST DATED AUGUST 29, 2016, priority 2021, published 2025):
Positions count from the first letter of the chain named.

B1: 15D3hmzhG1 HIR2/Fc/B1.89v1 huL1(KV2) hmz LC: humanized anti-ABCB1 mono arm antibody with B1.89v1 huL1(KV2) light chain (antibody)
heavy: EVQLVESGGVVVQPGGSLRLSCAASGFTFSRYTMSWVRQAPGKGLEWVATISSGGGNTYYPDSVKGRFTVSRDNSKNSLYLQMNSLRTEDTALYYCARYGAGDAWFAYWGQGTLVTVSSASTKGPSVFPLAPSSKSTSGGTAALGCLVKDYFPEPVTVSWNSGALTSGVHTFPAVLQSSGLYSLSSVVTVPSSSLGTQTYICNVNHKPSNTKVDKRVEPKSCDKTHTCPPCPAPELLGGPSVFLFPPKPKDTLMISRTPEVTCVVVDVSHEDPEVKFNWYVDGVEVHNAKTKPREEQYNSTYRVVSVLTVLHQDWLNGKEYKCKVSNKALPAPIEKTISKAKGQPREPQVCTLPPSREEMTKNQVSLSCAVKGFYPSDIAVEWESNGQPENNYKTTPPVLDSDGSFVLVSKLTVDKSRWQQGNVFSCSVMHEALHNHYTQKSLSLSPG
light: DIVMTQSPLSLPVTPGEPASISCRSSQTIVHSNGNTYLEWYLQKPGQSPQLLIYKVSKRFSGVPDRFSGSGSGTDFTLKISRVEAEDVGVYYCFQASHFPRTFGQGTKLEIKRTVAAPSVFIFPPSDEQLKSGTASVVCLLNNFYPREAKVQWKVDNALQSGNSQESVTEQDSKDSTYSLSSTLTLSKADYEKHKVYACEVTHQGLSSPVTKSFNRGEC
modifications: left off: another chain or arm of the molecule
notes: humanized anti-ABCB1 mono arm antibody with B1.89v1 huL1(KV2) light chain
B2: 15D3 hmz HIR2/Fc/B1VL6/CDR3v2a hmz: humanized anti-ABCB1 mono arm antibody with B1VL6/CDR3v2a light chain (antibody)
heavy: B1 heavy
light: B1 light with T28S, I29L, K58N, A96G
modifications: left off: another chain or arm of the molecule; small tags and cut ends

Key:
Type in all cases: cell-based
[1] = system: cynomolgus Red Blood Cells; assay: Antibody binding to cynomolgus red blood cells by flow cytometry; details: percent of RBC in the R3 gate
Experimental: (§1) Antibody binding to human and cynomolgus RBC was assessed by flow cytometry. Normal human and cynomolgus whole blood was obtained from BiolVT. RBC were prepared by centrifugation of whole blood aliquots (0.5 mL) for 5 min at 500xg. Supernatant (plasma) was removed, and RBC washed 3 times in D-PBS+1 mM EDTA. After the final wash, the RBC were resuspended in D-PBS+1 mM EDTA to a final volume of 0.5 mL. Washed RBC were then diluted in flow cytometry buffer (D-PBS+2% FBS+0.05% sodium azide) to 2% and dispensed at […] into 96-well plates. An equivalent volume ([…]) of antibody serially diluted in flow cytometry buffer to 2× final was added to the RBC, and the mixture incubated for 1 hour at room temperature. Next, RBC were washed 3 times with flow cytometry buffer and resuspended in 50 μL of Alexa Fluor®647 conjugated Fab fragment goat anti-human IgG diluted 1:200 in flow cytometry buffer. After 20 minutes at room temperature RBC were washed twice, resuspended in flow cytometry buffer and analyzed using an Invitrogen™ Attune™ NXT flow cytometer. […] Left panel, RBC are gated (R1) based on forward and side scatter. Middle panel, a second gate (R2) is applied to eliminate any remaining doublets or aggregates. Right panel, fluorescence of the R2 gated cells is assessed and a final gate (R3) is set using unstained RBC. Cells falling in the R3 gate are defined as “positive” for binding and reported as the percent (of R2 gated cells) that fall in the R3 gate. The results are presented at percent positive which represents the percent of RBC in the R3 gate.

human Red Blood Cells = assay: Antibody binding to human red blood cells by flow cytometry; details: percent of RBC in the R3 gate
Experimental: as §1

N6/ADR cells = assay: Cytotoxicity potency assay (antibody titrated, vincristine constant)
Experimental: The relative potency of the samples was evaluated using N6/ADR cells. These cells expressed both ABCB1 and CD47 with the expression of CD47 ˜40-fold higher than ABCB1 as determined by staining with R-phycoerythrin (R-PE) conjugated, commercially available antibodies against ABCB1 (UIC2, Biolegend) and CD47 (CC2C6, Biolegend). This assay also examined the effect of antibodies on vincristine-induced cytotoxicity using the drug-resistant cell line, N6/ADR. However, in this assay format the concentration of vincristine was held constant while the ABCB1 x CD47 BsAbs (or isotype control antibodies) were serially diluted. This assay measured antibody IC50. Lower IC50 meant higher antibody potency.
The potency assay was performed as follows. Cells were plated in 0.05 mL of assay media at 5000 cells/well in white flat bottom 96-well tissue culture plates and incubated overnight at 37° C., 5% CO2. […] An equivalent volume (0.05 mL) diluted antibody/vincristine mixture was transferred to the N6/ADR cells and incubated at 37° C., in 5% CO^2. After 72 hours, plates were removed from the incubator and allowed to equilibrate to room temperature. Viability was assessed using the Promega® CellTiter-Glo® Luminescent Cell Viability Assay according to the manufacturer's recommended protocol.

| Molecule | Binding to cynomolgus Red Blood Cells % Positive Cy744 ([1]; donor Cy744) [%] | Binding to cynomolgus Red Blood Cells % Positive Cy745 ([1]; donor Cy745) [%] | Binding to cynomolgus Red Blood Cells % Positive Cy747 ([1]; donor Cy747) [%] | Binding to human Red Blood Cells % positive D834 (human Red Blood Cells; donor D834) [%] | Binding to human Red Blood Cells % positive D835 (human Red Blood Cells; donor D835) [%] | Binding to human Red Blood Cells % positive D836 (human Red Blood Cells; donor D836) [%] | Binding to human Red Blood Cells % positive D837 (human Red Blood Cells; donor D837) [%] | potency increasing cytotoxicity (N6/ADR cells) |
| --- | --- | --- | --- | --- | --- | --- | --- | --- |
| B1 | 0.3 | 0.6 | 4.0 | 0.2 | 0.2 | 0.1 | 0.1 | lesser potency than the corresponding bispecific antibodies |
| B2 | – | – | – | – | – | – | – | lesser potency than the corresponding bispecific antibodies |
